10 molecules from patent US20260217804A1 (BIOARCTIC, published 2026) can be followed below.

The labels stand for the following.
B1: H9L8 (antibody, human IgG1, kappa, V domains shown)
VH: QVQLVQSGPEVKKPGSSVKVSCKASGYSFTGFTMNWVRQTPGKGLEWIGLINPYNGVTTYNQKFKGRVTITADESTRTAYMELLSLTYEDTAVYYCTREGNWEGVYWGQGTPVTVSA
VL: EVVLTQSPLSISVTLGQSASISCRSSQSLLDSNGKTYLHWFILRPGQSPRRLIYLVSILDSGIPDRFSGSGSGTDFTLKISRVEAEDVGVYYCVQGTHFPFTFGGGTKLEIKR
notes: Humanized IgG1/kappa, expressed in CHO cells; also called humanized Pyr12.2 variant H9L8; VH9/VL8
B5: H2L7 (antibody, human IgG1, kappa, V domains shown)
VH: EVQLVQSGAEVKKPGASVRLSCKASGYSFTGFTMNWVRQALGQGLEWMGLINPYNGVTTYNQKFKGRLTMTRDMSTRTVYMDLSSLRYEDTAVYYCTREGNWEGVYWGQGTLVTVSS
VL: EIVLTQSPLSLSVTLGQSASISCRSSQSLLDSNGKTYLHWFILRPGQSPRRLIYLVSILDSGVPDRFSGSGSGTDFTLKISRVEAEDVGVYYCVQGTHFPFTFGSGTKLEIKR
notes: Humanized IgG1/kappa, expressed in CHO cells; also called humanized Pyr12.2 variant H2L7; VH2/VL7
B7: H2L7-K12V/R71A (antibody, human IgG1, kappa)
heavy: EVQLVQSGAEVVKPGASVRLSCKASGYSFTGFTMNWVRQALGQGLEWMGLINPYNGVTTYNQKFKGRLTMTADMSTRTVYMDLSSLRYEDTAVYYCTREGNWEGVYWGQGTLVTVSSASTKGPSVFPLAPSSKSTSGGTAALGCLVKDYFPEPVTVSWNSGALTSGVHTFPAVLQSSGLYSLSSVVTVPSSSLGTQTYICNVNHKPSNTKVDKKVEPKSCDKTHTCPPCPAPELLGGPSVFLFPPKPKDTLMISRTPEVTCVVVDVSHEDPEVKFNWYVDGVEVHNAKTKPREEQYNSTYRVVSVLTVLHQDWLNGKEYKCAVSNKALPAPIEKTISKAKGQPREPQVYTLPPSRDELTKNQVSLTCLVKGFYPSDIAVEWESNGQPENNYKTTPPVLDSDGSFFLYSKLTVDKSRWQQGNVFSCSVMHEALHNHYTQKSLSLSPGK
light: EIVLTQSPLSLSVTLGQSASISCRSSQSLLDSNGKTYLHWFILRPGQSPRRLIYLVSILDSGVPDRFSGSGSGTDFTLKISRVEAEDVGVYYCVQGTHFPFTFGSGTKLEIKRTVAAPSVFIFPPSDEQLKSGTASVVCLLNNFYPREAKVQWKVDNALQSGNSQESVTEQDSKDSTYSLSSTLTLSKADYEKHKVYACEVTHQGLSSPVTKSFNRGEC
notes: Variant of H2L7 with changes in VH only
B9: H2L7-K12V/R83T (antibody, human IgG1, kappa, V domains shown)
VH: EVQLVQSGAEVVKPGASVRLSCKASGYSFTGFTMNWVRQALGQGLEWMGLINPYNGVTTYNQKFKGRLTMTRDMSTRTVYMDLSSLTYEDTAVYYCTREGNWEGVYWGQGTLVTVSS
VL: EIVLTQSPLSLSVTLGQSASISCRSSQSLLDSNGKTYLHWFILRPGQSPRRLIYLVSILDSGVPDRFSGSGSGTDFTLKISRVEAEDVGVYYCVQGTHFPFTFGSGTKLEIKR
notes: as for B7
B10: AβpE11-28 monomer (peptide, UniProt P05067 682-699, looked up)
peptide: EVHHQKLVFFAEDVGSNK
modifications: pyroglutamate (pE) at position 11, the N-terminus
notes: range 11-28; The range counts on Aβ numbering, not on APP

A value given as a limit tells only on which side of the number the result lay.

One assay concerns the target T1, Aβ1-28 monomer (UniProt P05067 672-699).
T1 construct: range 1-28; The range counts on Aβ numbering, not on APP
The assay can be described thus: inhibition ELISA. As to the method:
(§1) The humanized antibodies were incubated at a fixed concentration (0.5 μg/ml) with titrating concentrations of the different Aβ antigens. […] The samples were incubated on the plate for 25 min without shaking followed by washing, incubation with detection antibody, another washing step and finally incubation with alkaline phosphatase substrate.
Background: An ELISA detects its analyte on a solid surface through an enzyme-linked reagent.

The target of another assay is T2, Aβ1-42 protofibrils (UniProt P05067 672-713).
T2 construct: range 1-42; Soluble aggregates of Aβ1-42; The range counts on Aβ numbering, not on APP
The assay can be described thus: inhibition ELISA. The procedure: as §1

The next assay concerns the target T3, Aβ4-28 monomer (UniProt P05067 675-699).
T3 construct: range 4-28; The range counts on Aβ numbering, not on APP
The assay can be described thus: inhibition ELISA. The procedure:
as §1

The target in another assay is T4, Aβ3-28 monomer (UniProt P05067 674-699).
T4 construct: range 3-28; The range counts on Aβ numbering, not on APP
The assay can be described thus: inhibition ELISA. As to the method:
as §1

In the next assay the target is T5, Aβ5-28 monomer (UniProt P05067 676-699).
T5 construct: range 5-28; The range counts on Aβ numbering, not on APP
The assay can be described thus: inhibition ELISA. The procedure:
as §1

The next assay addresses T6, Aβ1-40 monomer (UniProt P05067 672-711).
T6 construct: range 1-40
The assay can be described thus: inhibition ELISA. The procedure:
as §1

The target of the next assay is T7, AβpE3-28 monomer (UniProt P05067 674-699, pyroglutamate (pE) at position 3, the N-terminus).
T7 construct: range 3-28; The range counts on Aβ numbering, not on APP
Put plainly: inhibition ELISA. As to the method:
as §1

The target of a further assay is T8, Aβ2-28 monomer (UniProt P05067 673-699).
T8 construct: range 2-28; The range counts on Aβ numbering, not on APP
The assay can be described thus: inhibition ELISA. As to the method: as §1

The target in the assay “AβpE11-28 monomer” is B10. Put plainly: inhibition ELISA. The procedure: as §1
Another assay deals with T9, AβpE11-40 monomer (UniProt P05067 682-711, pyroglutamate (pE) at position 11, the N-terminus).
T9 construct: range 11-40; The range counts on Aβ numbering, not on APP
T9 peptide (looked up): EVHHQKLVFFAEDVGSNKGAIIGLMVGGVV
The assay can be described thus: inhibition ELISA. As to the method:
as §1

For a further assay, the target named is T10, Aβ1-42 monomer (UniProt P05067 672-713).
T10 construct: range 1-42; The range counts on Aβ numbering, not on APP; also called monomeric Aβ1-42
The assay can be described thus: capture ELISA: plate coated with rabbit anti-Aβ42, peptide monomer captured, hybridoma supernatant, anti-mouse IgG-HRP, OD450 (Example 1).

Another assay addresses T11, Aβ2-42 monomer (UniProt P05067 673-713).
T11 construct: range 2-42; The range counts on Aβ numbering, not on APP
The assay is described as above.

The target of another assay is T12, AβpE3-40 monomer (UniProt P05067 674-711, pyroglutamate (pE) at position 3, the N-terminus).
T12 construct: range 3-40; also called monomeric AβpE3-40
The assay can be described thus: SPR (Biacore 8K), antibody immobilised on CM5, monomer injected, 1:1 model. As to the method: For the measurements, 5 μg/ml of […] antibody was immobilized on the chip. The monomer was then injected over the chip using a 2-fold dilution in five steps starting at 250 nM, using 2 min injection of every […] concentration and a 20 min dissociation time. Regeneration of the surface between cycles was done by injecting 30 μl 3 M MgCl₂. The binding data was fitted to a 1:1 interaction model.
In all SPR experiments, 1×HBS-EP+ (Cytiva, cat. no. BR100669) was used to dilute antibodies and target antigens. Experiments were performed at 25° C.
Affinity evaluation and Ko determination by surface plasmon resonance: Binding interactions between antigens and antibodies were evaluated by SPR using a Biacore 8K instrument (Cytiva) according to standard procedures.
Background: In SPR one partner is held on a chip, and binding of the other changes the refractive index at the surface.

For the assay “H2L7-K12V/R83T”, the target named is B9. The assay can be described thus: inhibition ELISA as in Example 6: antigen in solution titrated, antibody fixed, AβpE3-40 coat. The procedure:
as §1

Assay [1] concerns the target B5. Described as above. The procedure:
as §1

For the assay “H2L7-K12V/R71A”, the target named is B7. Described as above. As to the method:
as §1

The assay “H9L8” has as its target B1. The assay can be described thus: inhibition ELISA: antigen in solution titrated, antibody fixed (0.5 µg/ml), AβpE3-40 coat. The procedure: as §1
Assay [2] concerns the target B5. The description is as above. As to the method: as §1

H2L7-K12V/R71A, sequence (heavy, as listed by the source, chain 1 of 2, one chain of several): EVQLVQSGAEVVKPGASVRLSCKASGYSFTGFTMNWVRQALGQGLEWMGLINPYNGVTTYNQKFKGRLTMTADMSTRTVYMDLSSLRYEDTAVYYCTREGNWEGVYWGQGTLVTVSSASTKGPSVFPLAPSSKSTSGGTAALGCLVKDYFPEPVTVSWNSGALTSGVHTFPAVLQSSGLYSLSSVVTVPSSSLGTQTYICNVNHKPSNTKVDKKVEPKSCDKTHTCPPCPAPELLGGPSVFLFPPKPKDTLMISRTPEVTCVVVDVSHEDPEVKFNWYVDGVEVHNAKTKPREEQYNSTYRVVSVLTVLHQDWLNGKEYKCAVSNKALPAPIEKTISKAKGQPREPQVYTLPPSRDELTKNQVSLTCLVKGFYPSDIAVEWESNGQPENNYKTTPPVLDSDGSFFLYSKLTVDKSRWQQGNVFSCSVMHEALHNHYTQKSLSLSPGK

Turning to B1, the binding result was “no binding (tested: 12.5 µM)” in the assay with Aβ1-28 monomer; “no binding (tested: 500 nM)” in the assay with Aβ1-42 protofibrils; “no binding (tested: 12.5 µM)” with Aβ4-28 monomer; “binds” with Aβ3-28 monomer; “no binding (tested: 12.5 µM)” in the assay with Aβ5-28 monomer; “no binding (tested: 12.5 µM)” with Aβ1-40 monomer. Also, the figures for the binding result with AβpE3-28 monomer, with Aβ2-28 monomer and with AβpE11-28 monomer were “binds”, “no binding (tested: 12.5 µM)” and “no binding (tested: 12.5 µM)”, respectively.

B2: Pyr7.1 (antibody, IgG2c, V domains shown)
VH: KVQLQQSGPELVKPGTSIKMSCKTSGYSFTGYTLNWVKQSPGKNPEWIGLINPYNGITTYNPKFMGKATLTVDKSSSTAYMELLSLTSEDSAVYYCSREGNWEGVYWGQGTLVTVSA
VL: not shown
notes: also called recombinant antibody Pyr7.1; hybridoma clone Pyr7.1
For B2, the binding result is recorded as “no binding (tested: 5 µM)” with AβpE11-40 monomer, “no binding (tested: 5 µM)” in the assay with Aβ1-40 monomer, “no binding (tested: no concentration on the sheet)” with Aβ1-42 monomer and “no binding (tested: no concentration on the sheet)” with Aβ2-42 monomer.

B3: H2L7-R71A (antibody, human IgG1, kappa)
heavy: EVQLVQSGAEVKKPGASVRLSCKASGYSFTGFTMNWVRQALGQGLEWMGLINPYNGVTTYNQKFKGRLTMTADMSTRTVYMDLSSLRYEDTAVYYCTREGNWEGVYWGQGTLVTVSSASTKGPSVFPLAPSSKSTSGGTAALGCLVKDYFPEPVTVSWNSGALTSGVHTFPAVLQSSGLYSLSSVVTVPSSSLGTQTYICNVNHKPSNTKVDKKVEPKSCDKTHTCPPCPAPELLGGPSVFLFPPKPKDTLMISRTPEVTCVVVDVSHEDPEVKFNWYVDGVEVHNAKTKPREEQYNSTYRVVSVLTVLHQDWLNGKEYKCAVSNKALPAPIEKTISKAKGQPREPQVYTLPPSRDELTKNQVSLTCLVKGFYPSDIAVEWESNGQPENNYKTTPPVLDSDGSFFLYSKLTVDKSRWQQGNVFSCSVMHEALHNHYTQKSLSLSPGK
light: EIVLTQSPLSLSVTLGQSASISCRSSQSLLDSNGKTYLHWFILRPGQSPRRLIYLVSILDSGVPDRFSGSGSGTDFTLKISRVEAEDVGVYYCVQGTHFPFTFGSGTKLEIKRTVAAPSVFIFPPSDEQLKSGTASVVCLLNNFYPREAKVQWKVDNALQSGNSQESVTEQDSKDSTYSLSSTLTLSKADYEKHKVYACEVTHQGLSSPVTKSFNRGEC
notes: Variant of H2L7 with a change in VH only
Take B3: the binding result is recorded as “no binding (tested: 132 nM)” with Aβ1-42 protofibrils and “no binding (tested: 500 nM)” with Aβ1-40 monomer.

B4: Pyr12.2 (antibody, IgG2c, V domains shown)
VH: EVQLQQSGPELVKPGTSIKMSCKASGYSFTGFTMNWVKQSHGKNLEWIGLINPYNGVTTYNQKFKGKATITVDKSSRTAYMELLSLTYEDSAVYYCTREGNWEGVYWGQGTPVTVSA
VL: EVVLTQTPLTLSVTIGQSASISCKSSQSLLDSNGKTYLHWFLLRPGQSPKRLIYLVSILDSGVPDRFTGSGSGTDFTLKISRVEAEDLGIYYCVQGTHFPFTFGSGTKLEIKR
notes: also called recombinant antibody Pyr12.2; hybridoma clone Pyr12.2
As for B4, the binding result with AβpE11-40 monomer is “no binding (tested: 5 µM)”; with Aβ1-40 monomer, “no binding (tested: 5 µM)”; with Aβ1-42 monomer it was “no binding (tested: no concentration on the sheet)”; with Aβ2-42 monomer, “no binding (tested: no concentration on the sheet)”.

As for B5, the binding result with Aβ1-28 monomer is reported as “no binding (tested: 12500 nM)”; in the assay with Aβ1-42 protofibrils it was “no binding (tested: 500 nM)”; with Aβ4-28 monomer, “no binding (tested: 12500 nM)”; with Aβ3-28 monomer, “binds”; with Aβ5-28 monomer it was “no binding (tested: 12500 nM)”; in the assay with Aβ1-40 monomer it was “no binding (tested: 12.5 µM)”. The binding result was “binds” in the assay with AβpE3-28 monomer, “no binding (tested: 12500 nM)” with Aβ2-28 monomer and “no binding (tested: 12500 nM)” in the assay with AβpE11-28 monomer.

B6: H2L7-R71A/R83T (antibody, human IgG1, kappa)
heavy: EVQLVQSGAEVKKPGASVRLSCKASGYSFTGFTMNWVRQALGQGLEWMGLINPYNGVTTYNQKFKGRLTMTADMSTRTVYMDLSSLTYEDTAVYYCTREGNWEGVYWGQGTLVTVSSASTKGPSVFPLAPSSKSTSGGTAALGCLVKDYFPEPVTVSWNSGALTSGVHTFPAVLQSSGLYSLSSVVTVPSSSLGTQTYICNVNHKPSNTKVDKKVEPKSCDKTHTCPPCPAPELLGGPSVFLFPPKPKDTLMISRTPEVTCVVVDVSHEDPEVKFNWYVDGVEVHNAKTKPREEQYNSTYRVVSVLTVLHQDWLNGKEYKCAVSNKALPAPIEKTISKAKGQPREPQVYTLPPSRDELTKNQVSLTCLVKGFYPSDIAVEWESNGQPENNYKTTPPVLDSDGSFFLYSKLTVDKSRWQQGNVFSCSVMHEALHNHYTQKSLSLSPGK
light: EIVLTQSPLSLSVTLGQSASISCRSSQSLLDSNGKTYLHWFILRPGQSPRRLIYLVSILDSGVPDRFSGSGSGTDFTLKISRVEAEDVGVYYCVQGTHFPFTFGSGTKLEIKRTVAAPSVFIFPPSDEQLKSGTASVVCLLNNFYPREAKVQWKVDNALQSGNSQESVTEQDSKDSTYSLSSTLTLSKADYEKHKVYACEVTHQGLSSPVTKSFNRGEC
notes: as for B7
Broadly, the Kd is the free concentration of one partner at which half of the binding sites on the other are occupied at equilibrium, for simple one-to-one binding. Low readings indicate a tighter complex, high ones a looser complex. What is called koff is a measure of how fast the partners let go of each other. Higher therefore signals fast dissociation. By kon is commonly meant a measure of how fast the partners come together. Higher therefore signals faster complex formation. Take B6: in the assay with AβpE3-40 monomer, binding was characterised by a dissociation constant (Kd) of 0.00462 µM, the dissociation rate constant (koff) was 0.000225 s⁻¹ and the kon is 50100 M⁻¹ s⁻¹. In the assay with Aβ1-42 protofibrils, the binding result was “no binding (tested: 132 nM)”. The binding result in the assay with Aβ1-40 monomer was “no binding (tested: 500 nM)”.

Turning to B7, the binding result was “no binding (tested: 132 nM)” in the assay with Aβ1-42 protofibrils, “binds” in the assay with Aβ3-28 monomer, “no binding (tested: 500 nM)” with Aβ1-40 monomer and “binds” in the assay with AβpE3-28 monomer.

B8: H2L7-K12V/R71A/R83T (antibody, human IgG1, kappa)
heavy: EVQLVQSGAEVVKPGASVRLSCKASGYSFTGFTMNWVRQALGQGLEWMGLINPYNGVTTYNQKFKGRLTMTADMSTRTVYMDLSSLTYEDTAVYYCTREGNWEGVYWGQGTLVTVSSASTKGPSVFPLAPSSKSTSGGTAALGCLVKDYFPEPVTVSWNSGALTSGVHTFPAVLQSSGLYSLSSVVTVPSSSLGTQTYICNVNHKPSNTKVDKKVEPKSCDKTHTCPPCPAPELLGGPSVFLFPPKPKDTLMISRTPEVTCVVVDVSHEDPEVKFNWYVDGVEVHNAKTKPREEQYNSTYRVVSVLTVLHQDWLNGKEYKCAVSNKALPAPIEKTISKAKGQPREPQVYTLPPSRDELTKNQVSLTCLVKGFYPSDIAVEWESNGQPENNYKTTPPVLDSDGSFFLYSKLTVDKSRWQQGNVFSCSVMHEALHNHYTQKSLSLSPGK
light: EIVLTQSPLSLSVTLGQSASISCRSSQSLLDSNGKTYLHWFILRPGQSPRRLIYLVSILDSGVPDRFSGSGSGTDFTLKISRVEAEDVGVYYCVQGTHFPFTFGSGTKLEIKRTVAAPSVFIFPPSDEQLKSGTASVVCLLNNFYPREAKVQWKVDNALQSGNSQESVTEQDSKDSTYSLSSTLTLSKADYEKHKVYACEVTHQGLSSPVTKSFNRGEC
notes: as for B7
On to B8, for which the results for the binding result in the assay with Aβ1-42 protofibrils and with Aβ1-40 monomer were “no binding (tested: 132 nM)” and “no binding (tested: 500 nM)”, respectively.

As for B9, the binding result is given as “no binding (tested: 132 nM)” with Aβ1-42 protofibrils, “binds” with Aβ3-28 monomer, “no binding (tested: 500 nM)” with Aβ1-40 monomer and “binds” in the assay with AβpE3-28 monomer.

By IC50 is commonly meant the concentration needed to halve the response being measured. On to B10, for which the IC50 with H2L7-K12V/R83T, with H2L7 [1], in the assay with H2L7-K12V/R71A, with H9L8 and with H2L7 [2] was more than 12.5 µM throughout.
